Reference: the supplement of paper PMC7125110
± gives the standard error. Fewer inactive variants are shown than the library holds.

B1: glmS ribozyme (parent)
chain: AUAAAAGCGCCAGAACUACAGAAAUGUAGUUGACGAGGAGGAGGUUUAUCGAAUUUUCGGCGGAUGCCUCCAAA

Key:
Conditions in all cases: with glucosamine-6-phosphate
glucosamine-6-phosphate [1] = variants of: B1; test: self-cleavage kobs at 40 uM GlcN6P; higher = faster cleavage; RNA array
Summary of the method: (§1)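 Over ~14 h at 37 °C, tiles were imaged as glucosamine-6-phosphate (40 μM to 10 mM) in HEPES/KCl/Mg(OAc)2 buffer flowed across sequenced MiSeq chips. The chips carried barcoded ribozyme variants transcribed in situ by E. coli RNA polymerase and tracked with a hybridised Cy3 probe. After normalisation to baseline and to non-cleaving reference variants, one- or two-exponential decay fits of per-tile medians gave kobs. kcat and KM followed from weighted Michaelis–Menten fits across concentrations.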

glucosamine-6-phosphate [2] = variants of: B1; test: self-cleavage kobs at 160 uM GlcN6P; higher = faster cleavage; RNA array
Summary of the method: as §1

glucosamine-6-phosphate [3] = variants of: B1; test: self-cleavage kobs at 640 uM GlcN6P; higher = faster cleavage; RNA array
Summary of the method: as §1

glucosamine-6-phosphate [4] = variants of: B1; test: self-cleavage kobs at 2500 uM GlcN6P; higher = faster cleavage; RNA array
Summary of the method: as §1

glucosamine-6-phosphate [5] = variants of: B1; test: self-cleavage kobs at 10000 uM GlcN6P; higher = faster cleavage; RNA array
Summary of the method: as §1

Row | Variant | self-cleavage kobs at 40 uM GlcN6P (glucosamine-6-phosphate [1]) [s⁻¹] | self-cleavage kobs at 160 uM GlcN6P (glucosamine-6-phosphate [2]) [s⁻¹] | self-cleavage kobs at 640 uM GlcN6P (glucosamine-6-phosphate [3]) [s⁻¹] | self-cleavage kobs at 2500 uM GlcN6P (glucosamine-6-phosphate [4]) [s⁻¹] | self-cleavage kobs at 10000 uM GlcN6P (glucosamine-6-phosphate [5]) [s⁻¹]
1 | A36U G44A | < 1e-05 | < 1e-05 | < 1e-05 | < 1e-05 | < 1e-05
2 | G37A A53G | 0.000101 ± 2.3e-05 | 0.000212 ± 3.8e-05 | 0.000708 ± 0.00015 | 0.00163 ± 0.00063 | 0.00615 ± 0.0014
3 | A36G A64G U69G | < 1e-05 |  |  |  | 
4 | G37U G43C G66U | < 1e-05 |  |  |  | < 1e-05
5 | A36U U55G G63A C71A | < 1e-05 |  |  |  | 
6 | G40U U56A | 6.75e-05 ± 1.3e-05 | 0.000124 ± 3.2e-05 | 0.000381 ± 4.4e-05 | 0.00116 ± 0.00022 | 0.00344 ± 0.00064
7 | A36G G62U | < 1e-05 |  | < 1e-05 | < 1e-05 | < 1e-05
8 | A36G G63U | < 1e-05 | < 1e-05 | < 1e-05 | < 1e-05 | < 1e-05
9 | A36G G63A | < 1e-05 | < 1e-05 | < 1e-05 | < 1e-05 | < 1e-05
10 | A39U G40U C70U | 9.82e-05 ± 1.8e-05 | 0.000392 ± 6.8e-05 | 0.000466 ± 7.4e-05 | 0.00127 ± 0.0003 | 0.00219 ± 0.00054
11 | G37U U45G U46C G63A C68A | < 1e-05 |  |  |  | < 1e-05
12 | A36G G44U U45C G51A G63C U69G C70G | < 1e-05 |  |  |  | < 1e-05
13 | G38U U46G G60C | < 1e-05 | < 1e-05 | < 1e-05 | < 1e-05 | 
14 | G37C A42C | < 1e-05 | < 1e-05 |  | < 1e-05 | 
15 | A39G U55G C67A | 0.000369 ± 0.00011 |  |  |  | 0.0117 ± 0.003
16 | G40U G63C | < 1e-05 | < 1e-05 | < 1e-05 | < 1e-05 | < 1e-05
17 | G40U G63A | < 1e-05 | < 1e-05 | < 1e-05 | < 1e-05 | < 1e-05
18 | G40C A64C | < 1e-05 | < 1e-05 |  |  | 
19 | A39C U49C | < 1e-05 | < 1e-05 |  |  | < 1e-05
20 | A39U G66A | 0.000403 ± 0.00015 | 0.000797 ± 0.00024 | 0.00167 ± 0.00076 | 0.00655 ± 0.0022 | 0.0134 ± 0.0056
21 | G37A G63C | < 1e-05 | < 1e-05 | < 1e-05 | < 1e-05 | < 1e-05
22 | G38C G40C A64U | < 1e-05 |  |  |  | < 1e-05
23 | G40C A48C | < 1e-05 | < 1e-05 | < 1e-05 |  | 

Row | Variant | self-cleavage kobs at 40 uM GlcN6P (glucosamine-6-phosphate [1]) [s⁻¹] | self-cleavage kobs at 160 uM GlcN6P (glucosamine-6-phosphate [2]) [s⁻¹] | self-cleavage kobs at 640 uM GlcN6P (glucosamine-6-phosphate [3]) [s⁻¹] | self-cleavage kobs at 2500 uM GlcN6P (glucosamine-6-phosphate [4]) [s⁻¹] | self-cleavage kobs at 10000 uM GlcN6P (glucosamine-6-phosphate [5]) [s⁻¹]
24 | A36U U69G | 3.66e-05 ± 8.9e-06 | 0.000214 ± 3.9e-05 | 0.000283 ± 5.8e-05 | 9.73e-05 ± 2.3e-05 | 0.000107 ± 4.1e-05
25 | G40U C61A G63C | < 1e-05 | < 1e-05 |  | < 1e-05 | 
26 | G41A A48G | < 1e-05 | < 1e-05 | < 1e-05 | < 1e-05 | 
27 | G37U U69A | < 1e-05 |  |  |  | < 1e-05
28 | A36G U54C | < 1e-05 | < 1e-05 |  |  | 
29 | A39U G51U | < 1e-05 |  | < 1e-05 |  | < 1e-05
30 | G40A C61U | < 1e-05 | < 1e-05 | < 1e-05 |  | 
31 | G41A A48U C68A | < 1e-05 |  | < 1e-05 | < 1e-05 | < 1e-05
32 | G37U G43C | < 1e-05 | < 1e-05 |  | < 1e-05 | < 1e-05
33 | G37U G43U | < 1e-05 |  | < 1e-05 |  | < 1e-05
34 | G38U U46G | < 1e-05 | < 1e-05 |  | < 1e-05 | 
35 | A39U C68U C71G | < 1e-05 |  |  |  | 4.42e-05 ± 2e-05
36 | G40A C50A C70G | < 1e-05 |  |  |  | 
37 | A36G G43A C58A G62C C68G | < 1e-05 |  |  |  | < 1e-05
38 | G40C C50U C58A C71G | < 1e-05 |  |  |  | < 1e-05
39 | G40A G62U | < 1e-05 | < 1e-05 | < 1e-05 |  | < 1e-05
40 | G40U A48G G63U | < 1e-05 | < 1e-05 | < 1e-05 |  | < 1e-05
41 | A36G G37C | < 1e-05 | < 1e-05 |  |  | < 1e-05
42 | G40C C68A | < 1e-05 | < 1e-05 | < 1e-05 | < 1e-05 | < 1e-05
43 | G38C C67U | < 1e-05 |  |  | < 1e-05 | < 1e-05
44 | A39U G51U C67U | < 1e-05 | < 1e-05 | < 1e-05 | < 1e-05 | < 1e-05
45 | G40A C67A | < 1e-05 |  | 0.000183 ± 5.8e-05 | 0.000262 ± 0.00011 | 
46 | A36G A52G | < 1e-05 | < 1e-05 | < 1e-05 |  | < 1e-05

Row | Variant | self-cleavage kobs at 40 uM GlcN6P (glucosamine-6-phosphate [1]) [s⁻¹] | self-cleavage kobs at 160 uM GlcN6P (glucosamine-6-phosphate [2]) [s⁻¹] | self-cleavage kobs at 640 uM GlcN6P (glucosamine-6-phosphate [3]) [s⁻¹] | self-cleavage kobs at 2500 uM GlcN6P (glucosamine-6-phosphate [4]) [s⁻¹] | self-cleavage kobs at 10000 uM GlcN6P (glucosamine-6-phosphate [5]) [s⁻¹]
47 | A36G A52U | < 1e-05 | < 1e-05 | < 1e-05 | < 1e-05 | < 1e-05
48 | A39C A52G G59U U69G | < 1e-05 |  |  |  | 
49 | A36G G51U | < 1e-05 |  | < 1e-05 |  | < 1e-05
50 | A36U G38C A53C | < 1e-05 |  |  |  | 
51 | G37A A53G G60U C61U G63A | < 1e-05 |  |  |  | 
52 | A36G C67U | < 1e-05 |  |  |  | 
53 | G40A G63A | < 1e-05 |  |  | < 1e-05 | < 1e-05
54 | A36G A48C | < 1e-05 | < 1e-05 | < 1e-05 |  | < 1e-05
55 | A36G A48U | < 1e-05 | < 1e-05 | < 1e-05 | < 1e-05 | < 1e-05
56 | A36G G59U | < 1e-05 | < 1e-05 | < 1e-05 | < 1e-05 | < 1e-05
57 | G37U G40U C67G | < 1e-05 |  | < 1e-05 | < 1e-05 | 
58 | A39C G51C C71G | < 1e-05 |  |  |  | < 1e-05
59 | A36U A52G C70A | 5.42e-05 ± 1.4e-05 |  | 0.000171 ± 6.6e-05 |  | 
60 | G38C U57C | < 1e-05 | < 1e-05 |  |  | < 1e-05
61 | G40A A53G | 0.000243 ± 5.3e-05 |  | 0.0022 ± 0.0005 | 0.00571 ± 0.0011 | 0.0242 ± 0.0054
62 | A39G A48U C58G | < 1e-05 |  |  |  | < 1e-05
63 | A39G U65G C67G | 0.000107 ± 2.4e-05 |  |  |  | 0.00497 ± 0.0012
64 | G37U A39U C70G | < 1e-05 |  |  |  | 
65 | A39C C50G A52C | < 1e-05 |  |  |  | 
66 | A36G U65G | < 1e-05 | < 1e-05 | < 1e-05 | < 1e-05 | < 1e-05
67 | A39G G60U | < 1e-05 | < 1e-05 | < 1e-05 |  | 
68 | G37U C58U G63A | < 1e-05 |  |  |  | 
69 | A36U G43U C50U | < 1e-05 |  |  |  | 

Row | Variant | self-cleavage kobs at 40 uM GlcN6P (glucosamine-6-phosphate [1]) [s⁻¹] | self-cleavage kobs at 160 uM GlcN6P (glucosamine-6-phosphate [2]) [s⁻¹] | self-cleavage kobs at 640 uM GlcN6P (glucosamine-6-phosphate [3]) [s⁻¹] | self-cleavage kobs at 2500 uM GlcN6P (glucosamine-6-phosphate [4]) [s⁻¹] | self-cleavage kobs at 10000 uM GlcN6P (glucosamine-6-phosphate [5]) [s⁻¹]
70 | A36C U49G A53G | 4.33e-05 ± 1.4e-05 |  |  |  | 0.00107 ± 0.00018
71 | A39C G43C U47C U49C A64U U65A | < 1e-05 |  |  |  | 
72 | G41A C67G C70U | 4.65e-05 ± 2e-05 | 0.000107 ± 3.4e-05 | 0.000188 ± 5.7e-05 | 0.000826 ± 0.00023 | 0.00166 ± 0.00038
73 | G37A U57C G59C | < 1e-05 |  |  |  | < 1e-05
74 | G40A C71G | 0.000326 ± 5.2e-05 | 0.00034 ± 0.00014 | 0.00161 ± 0.00038 | 0.00373 ± 0.0013 | 0.00695 ± 0.0013
75 | A36U G41U C70G | < 1e-05 |  |  |  | 
76 | G38A C58A G66A | < 1e-05 |  |  |  | < 1e-05
77 | G37U A48U C68A | < 1e-05 |  |  |  | < 1e-05
78 | G40C G41A C70U | 8.35e-05 ± 2.8e-05 |  |  | 0.000861 ± 0.00023 | 
79 | G38U A52C C61A | < 1e-05 |  |  |  | 
80 | G38U G59A C68G | 6.06e-05 ± 2.6e-05 |  |  |  | 4.84e-05 ± 1.9e-05
81 | A39U G66U C67U | 3.54e-05 ± 1.2e-05 |  |  |  | 
82 | G41A G62U C67G | < 1e-05 |  |  |  | 
83 | G37U G41A | < 1e-05 | < 1e-05 | < 1e-05 |  | < 1e-05
84 | A36G U55C C67U | < 1e-05 |  | < 1e-05 | < 1e-05 | 
85 | G40C G43U C70A | < 1e-05 |  |  |  | < 1e-05
86 | G37C U56G | < 1e-05 | < 1e-05 |  |  | 
87 | A39U U55A U56C | 2.36e-05 ± 8.3e-06 |  |  |  | 0.00213 ± 0.00023
88 | G38U G44U U49C | < 1e-05 |  |  |  | < 1e-05
89 | A39G U54G | 0.00177 ± 0.00036 | 0.00227 ± 0.00056 | 0.00627 ± 0.0015 | 0.0305 ± 0.013 | 
